# Results reported in the nanobody polyreactivity screen of Harvey et al. (2022).
# Test: yeast display, Sf9 membrane polyspecificity reagent, FACS + sequencing; frameworks hold sequencing errors
# Procedure, shortened: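 Nanobodies from a synthetic yeast display library (Saccharomyces cerevisiae BJ5465), induced 36–48 hours with galactose, were stained 1 hour at 4 °C with 10% biotinylated, detergent-solubilized Sf9 membrane reagent, enriched on streptavidin microbeads, then FACS-sorted. Anti-HA (expression) and streptavidin (reagent binding) fluorescence set low and high (top ~1%) gates. Polyreactivity labels come from the gate of origin. Genes were colony-PCR amplified, MiSeq 2 × 250 sequenced and filtered by CDR length.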
row,Sequence,polyreactivity (PSR sort gate)
1,QVHLVESGGGLVQAGGSLRLSSAATGSIIYWYDMGWYRQAPGKERELVAAITNDGDSTYYADSVKGRFTISRDNAKNTVYLQMNSLKPEDTAVYYCAADVLFYYEYGSWGQGTQVTVSS,low polyreactivity
2,QVHLVESGGGLVQAGGSLRLSSADSGRIFTTYVMGWYRQAPGQESELVAAISARGSTYYADSVKGRFTISRDNAKNTVYLQMNSLKPEDNAVYYCAAGHRLPVYYVYPRATYNYWRQGTQVTVSS,low polyreactivity
3,QVHLVESGGGLVQAGGSLRLSSADSGRTFAYNAMRWYRPAPGKERELVAAITWSGDSTYYADSVKGRFTISRDNAKNTVYFQMNSLKPEDTEVYYCAADYFGGPSYEFDYWGQGTQVTVSS,low polyreactivity
4,QVHLVESGGGLVQAGGSLRLTCAASGFTFSDNAMGWYRQAPGKERELVAAISRSGGRTYYADSVKGRFTISRDNAKKTVYLQMNSLKPEDTAVYYCAAYQYGMDYWGQGTQVTVSS,high polyreactivity
5,QVHLVESGGGLVQAGGSLRLTCAASGSTFGTYAMGWYRPAPGKERELVATIAIGGITYYADSVKGRFTISRDNAKYTVYLQMNSLKPEDTAVDYCAKDVTAPTSRSDPSGDDYWGQGTQVTVSS,low polyreactivity
6,QVHLVESGGGLVQAGGSLRVSCAASGSIFPYAMGCYRQAPGKEREFVAAITSGVRTNYADSVKGRFTISRDNAKNNVYLQINSLKPEDTAVYYCAARYFPHYYSKYDYWGPGTQVTVSS,low polyreactivity
7,QVHLVESGGGLVQAGGSLSFSCAASGSNFTFNTMVWYRQAPGKEREKVATISSGGRTYYADSVKGRFTISRDNAKNTVYLQMNSLKPEDTPVFYCNKGYYGYTYVEYNYWGQGTPVTVSS,low polyreactivity
8,QVHLVESGGGLVQAGRSLPLSCAASGRIFIYNAMGWYRQAPGKERELVAAINRSGVSTHYADSVKGRFTISRDNAKNTVYLQMNSLKPEDTAVYYCARTVYGARSYDYWGQGTQVTVSS,low polyreactivity
9,QVHLVESGGGLVQAGRSLRLSCAASGSIFYVYAMGWYRQAPGKETQLVATISTGGSTYYADSVKGRFTISRDNAKNTVYLQMNSLKPEDTAVYYCNAQFTPRYWGGYDSWGQGNQVTVSS,low polyreactivity
10,QVHLVESGGGLVQAGVSLRLSCAASGSTFGHNAMVWYRQAPGKERELVAAISSIGGSTNYADSVKGRFTISRDNAKNTVYFQMNSLKPEDTAVYYCNAGPGLRYVSPYDYWGQGTQVTVSS,low polyreactivity
11,QVHLVESGGGLVQARGSLRLSCAASGRIFRYYVMGWYRQAPGIERELVAAITSGTSTNYADSVKGRFTISRDNAKNTVYLQMTSLKPEDTAVYYCAVRSPRGGRTRFNSNYWGQGTQVTVSS,high polyreactivity
12,QVHLVESGGGLVQARGSLRLSCAAYGRIFGRNAMGWYRQAPGKERELVAVITFSGGDTFYADSVKGRFTISRDNAKNTVYLQMNSLKPEDTAVYYCAKSQGFETYRNVSIFGYWGQGTQVTVSS,low polyreactivity
13,QVHLVESGGSLVQAGGSLRLSCAASGFIFSWYAMGWYRQAPGKERELLAAISHEGGYTYYADSVKGRFTISRDNSKNNVYLQMYSLKPEDTAVYYCAPAFRAAGRSVRYYWGHGTQVTVSS,high polyreactivity
14,QVHLVESGGVIVQAGGILRLSCAASGNIFTYYVMGWYRQAPGKERELVAAISRRGGSTYYADSVKGRFTISRDIAKNTVYLQMNSLKPEDTAVYYCAKKYPRDMDYWGQVTQVTVSS,high polyreactivity
15,QVHLVESGGVLVQAGGSLRLSCAASGFILYFNAMGWYIQAPGKERELVAVNTFRSGSTYYADSVKGRFTISRDNAKNTVNLQMNSLKPEDTAVYYCNAQSVLLSLRVELREPHEYWGHGTQVTVSS,low polyreactivity
16,QVHLVESGGVLVQAGGSLRLSCAASGIALLYYTMGWYRQAPGKERELVAAINSGGRTYYADSVKGRYTISRDNAKNTGYLQMNSLKPDDTAVYFCAAHGGADHMDYWGQGTQVTVSS,high polyreactivity
17,QVHLVESGRGLVQAGGSLRLSCAASGSTFKIYAMGWYRPAPAKERELVAAITRGGSTNYADSVKGRFTISRDTAKKTVYLQMNSLKPEDTAVYSFAASYWYRRYGTYSYDYWGHGTQVTVSS,high polyreactivity
18,QVHLVESGRGLVQAGGSLRLSCASSGSIFSRYAMGRYREAPGKVSELVAAISRRGGRTYYADSVKGRFTISRDYAKNTVYLQMKSLKPEVTAVYYCNDRRYNVPHPNRYDYWGQGTQVTVSS,high polyreactivity
19,QVHLVESGRGLVQSGGSLRLSCADSGSTFATNAMGWYRQAPGKERELVAAITSRGGTYYADSVKRRFTISRDKAKNTVYLQMNSLKPEDTAVYYCNAVSRYAFDYCGQGTQVTVSS,high polyreactivity
20,QVHLVESGVGLFQAGGSLRLSCAASGIIFRYYTMEWYIQAPGKEREVVAVITRGCSTYYADSVMGRFTISRDNAKYSVYLQMNSLKPVDTAVYFCAALRYKLPLGYWGQGTQVTVSS,high polyreactivity
21,QVHLVESRGGLDQAGGSLRLSCAASGRTVYQYAMGRNRQAPGKERELVAAITRSGSRTYYADTVKGRFTISRDNAKNTVYLQMNSLKPEDTAVYYCAADGHGGFPIDEYYYWGQGTQVTVSS,high polyreactivity
22,QVHLVESVGGLVQAGGILRLSCAASGFTFYSYAMGCYRQAPGNERELVAAITRSGGNTYYADSVKGRFTISRDNAKNTVYLQMNSLKPEDTAVYYCDATGKRISPSHYYCGQGTQVTVSS,high polyreactivity
23,QVHLVESVGGLVQAGGSLRLSCAASGGIFCVYAMGWYRQAPGKERELVAAISNSDTSTSYADSVKGRFTISRDNAKNTVYLQMNCLKPEVTAVYYCNADSPSLSGDYWGQGTQVTVSS,low polyreactivity
24,QVHLVESVGGLVQAGGSLRLSCAASGRIFYRNAMGCYRQAPGKERELVAAINTGGDGTYYADSVKGRFTISRDNAKNTVYLQMNSLKPEDTAVYYCAADRSSFYWSHGTVYGYDYWGQGTQVTVSS,low polyreactivity
25,QVHLVETGGALVQAGGSLSISCAASGSIYHGYTMGWYRQAPGKERELVAAINSGDGSTYADSVKGRFTISRDNAKNTVYLQMNSLKQEDTAVYYCAALYAVYWPWYVREYDYWGHGTQVTVSS,low polyreactivity
26,QVHLVETGGGLLQAGGSLRLSFAASGFTFWRYAMGWSRQAPGKESELVAAISRTGGRTYYADSLKGRFTISRDHAKNTVYLQMNSLNPEDTAVYYCNAPRGYSSTRNGYWGQGTQVTVSS,high polyreactivity
27,QVHLVQSGGGIVQAGGSLRLSCPASGSIFGYYAMGWYRQPRGKERELVAAITGGGRTYYADSVKGRFTISRDNAKNTVYLQMNSLKPEDTGVYYCTARSTSYRSYWRDYWGQGTHVTVSS,high polyreactivity
28,QVHRVESGGGLVQAGGSLRLSCAASGSIFSYYDLGWYRQAPGNERELVAAISWDGGDRTYADSVKGRFTISRDNAKNNVYLQMNSLKPEDSAVYYCAKNTGSYRRVNLDYWGQGTQVTVSS,low polyreactivity
29,QVKLKESVGGLVQAGGSLRLSCAASGSISATGHMGWYRQAPGEERELVAAINFGSNTYYADSVKGLFTISRDNAINTVYLQKSGLKPEDTAVYYWAVDGWYVGPYYYWGQGTQVTVSS,high polyreactivity
30,QVKLVESAGGLVQAGGSRRLSCAASGSIFRAYAMGWYRQAPGKESELVADISRSGGSTYYADSVKGRFTISRDNAKNNVYLQMNSLIPEDTAVYYCNRLPQYALPYRHNGYWGQGTQVTVSS,low polyreactivity
